Where two headings read alike, the source gives them in different places.
T1: Hera (Thermus thermophilus, UniProt O07897 1-510)
T1 sequence: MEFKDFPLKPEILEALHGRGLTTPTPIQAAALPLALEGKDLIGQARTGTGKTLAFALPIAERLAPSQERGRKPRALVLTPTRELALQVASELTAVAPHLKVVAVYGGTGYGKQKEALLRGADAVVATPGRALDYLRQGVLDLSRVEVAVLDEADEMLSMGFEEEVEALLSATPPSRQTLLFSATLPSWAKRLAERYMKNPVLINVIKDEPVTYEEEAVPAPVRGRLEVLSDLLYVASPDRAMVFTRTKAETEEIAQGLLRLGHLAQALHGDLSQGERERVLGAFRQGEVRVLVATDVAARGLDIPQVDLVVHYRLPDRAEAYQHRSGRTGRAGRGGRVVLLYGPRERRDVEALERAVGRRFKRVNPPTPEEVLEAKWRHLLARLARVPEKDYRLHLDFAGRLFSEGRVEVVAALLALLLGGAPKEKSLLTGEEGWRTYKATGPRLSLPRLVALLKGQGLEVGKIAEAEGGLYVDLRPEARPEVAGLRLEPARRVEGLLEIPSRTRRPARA

B1: tRNASer (TT_RS06780) (structured_RNA)
RNA: GGAGAGGUGGCCGAGUGGUCGAAGGCGGCACCCUGCUAAGGUGUUGCACCGGGAAAACCGGUGCCGCGGGUUCGAAUCCCGCCCUCUCCGCCA
B2: tRNAPro (TT_RS02830) (structured_RNA)
RNA: CGGGGAGUAGCGCAGCCCGGUAGCGCACCUCGUUCGGGACGAGGGGGUCGCUGGUUCAAAUCCAGUCUCCCCGACCA
B3: tRNAPro (TT_RS01350) (structured_RNA)
RNA: CGGGGCGUAGCGCAGGCCGGUAGCGCACCUGCUUUGGGAGCAGGGGGUCGCCCGUUCAAAUCGGGCCGCCCCGACCA
B4: tRNAPro (TT_RS09670) (structured_RNA)
RNA: CGGGGAGUAGCGCAGCCUGGUAGCGCACACGCUUGGGGUGCGUGGGGUCGUCGGUUCAAAUCCGGCCUCCCCGACCA
B5: tRNAGly (TT_RS08190) (structured_RNA)
RNA: GCGGGAGUAGCUCAGUCGGUAGAGCACGACCUUGCCAAGGUCGGGGUCGCGGGUUCAAGUCCCGUCUCCCGCUCCA
B6: tRNATyr (TT_RS08805) (structured_RNA)
RNA: GGGCAGGUGCCCGAGCGGCCAAAGGGGACGGUCUGUAAAACCGUUGGCGUAUGCCUUCGCUGGUUCGAAUCCAGCCCUGCCCACCA

What was measured:
Assay in all cases: competition
[1] = biological target: T1, Hera
[2] = biological target: T1, Hera; remark: listed apart in the source
[3] = biological target: T1, Hera; remark: listed apart in the source

Binder | binding result [1] | Kd [1] [nM] | further results
UAGGGGCGUGUGGGCCCACCCGGCGUGGCGCUGGCUCCACC (ssRNA) [RNA 2] | binds |  | 
CUCGUGGCCCUGGCGAGGAGGCUCGUGGAGGAGUAC (ssRNA) [RNA 1640] |  |  | binding result [2]: no binding
B1 |  | 60 | 
AGGTCCCAA (ssDNA) [9mer DNA] | no binding |  | 
B2 |  | 600 | 
B3 |  | 1400 | 
B4 |  | 400 | 
GCCAAGCCGGGCCUGGAC (ssRNA) [RNA 1638] |  |  | binding result [2]: no binding
CUGGCUUGCCCGGGAGAUCCUGGGCUACCCCGA (ssRNA) [RNA 9] | binds |  | 
UUUUUUUUUUUUUUUUUUUUUUUUUUUUUUUUUUUUUUUUUUUUUUUUUU (ssRNA) [50U] |  | 240 ± 50 | 
UUUGGGGCUGCGGGGCUGGACCCCACGGGCGCCGCCACCC (ssRNA) [RNA 13] | binds |  | 
CCUGCACGUUCCCACCGCCUGGGU (ssRNA) [RNA 1654] |  |  | binding result [3]: no binding
AAAAAAAAAAAAAAAAAAAAAAAAAAAAAAAAAAAAAAAAAAAAAAAAAA (ssRNA) [50A] | no binding |  | 
B5 |  | 400 | 
B6 |  | 400 | 

From PMC7566566
